Experimental data: article PMC12239813

Biological target: human FLT3 receptor (human) (UniProt P36888)
Experiment: SPR

UniProt P36888, sequence (P36888 27-993): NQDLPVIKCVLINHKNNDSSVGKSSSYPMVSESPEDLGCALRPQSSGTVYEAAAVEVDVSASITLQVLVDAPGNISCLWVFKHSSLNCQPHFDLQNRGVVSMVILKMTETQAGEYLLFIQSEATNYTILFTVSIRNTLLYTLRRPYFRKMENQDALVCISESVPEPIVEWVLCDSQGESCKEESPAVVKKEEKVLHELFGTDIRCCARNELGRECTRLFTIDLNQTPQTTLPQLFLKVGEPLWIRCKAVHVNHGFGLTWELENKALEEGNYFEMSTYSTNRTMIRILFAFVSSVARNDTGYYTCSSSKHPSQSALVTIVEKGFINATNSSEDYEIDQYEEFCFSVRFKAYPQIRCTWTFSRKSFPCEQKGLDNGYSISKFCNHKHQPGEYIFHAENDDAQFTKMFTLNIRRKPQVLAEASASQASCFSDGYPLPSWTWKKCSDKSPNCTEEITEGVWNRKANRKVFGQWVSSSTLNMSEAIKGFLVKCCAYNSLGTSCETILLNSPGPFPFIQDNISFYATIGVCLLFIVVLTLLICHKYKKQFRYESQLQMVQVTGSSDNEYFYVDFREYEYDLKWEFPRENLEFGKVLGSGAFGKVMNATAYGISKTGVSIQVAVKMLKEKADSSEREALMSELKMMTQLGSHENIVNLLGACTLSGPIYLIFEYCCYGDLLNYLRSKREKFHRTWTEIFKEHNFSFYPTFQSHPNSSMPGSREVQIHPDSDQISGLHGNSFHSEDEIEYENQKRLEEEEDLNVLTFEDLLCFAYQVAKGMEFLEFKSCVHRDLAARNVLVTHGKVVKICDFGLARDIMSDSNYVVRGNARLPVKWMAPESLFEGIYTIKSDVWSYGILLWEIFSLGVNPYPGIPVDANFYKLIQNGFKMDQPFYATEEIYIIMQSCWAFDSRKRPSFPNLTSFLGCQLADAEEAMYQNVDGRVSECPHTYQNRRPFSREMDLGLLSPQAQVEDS

Kd: 22.3 nM | koff: 0.812 s⁻¹
Substance: human FLT3L protein (from UniProt P49771 27-184) (ligand)
